Experimental data reported in publication PMC7004160.

Assays:
[1] = target: superfolder GFP [GFP: P42212]; test: MST; sfGFP as the fluorescent antigen, photobody added in a dilution series; before and after photodeprotection (365 nm)
[2] = target: superfolder GFP [GFP: P42212]; test: not stated; photobody 10, caged or photodeprotected, with purified sfGFP

| Substance | Kd [1] [µM] | Kd [2] [µM] |
| --- | --- | --- |
| anti-GFP NPY-photobody (construct 5), GFP-enhancer nanobody with Y37NPY, caged (VHH) | 0.46 | – |
| anti-GFP ONBY-photobody (construct 4), GFP-enhancer nanobody with Y37ONBY, caged (VHH) | > 10 | – |
| anti-GFP minimizer Y113ONBY-photobody (construct 10), caged (VHH) | – | 2.28 |
